The record followed here is PMC7442782, “Molecular basis for DNA repair synthesis on short gaps by mycobacterial Primase-Polymerase C” (Nature Communications, 2020).

Positions count from the first letter of the chain named.

Data set [1] deals with T1, Prim–PolC (Msm Prim–PolC) (Mycolicibacterium smegmatis, UniProt A0R5T1).
T1 construct: gene ligD; residues 4-336 printed for the crystal structure (may be the ordered part of the full-length protein); N-terminal His tag, pET28, made in E. coli Origami B pLysS
T1 sequence (A0R5T1 4-336): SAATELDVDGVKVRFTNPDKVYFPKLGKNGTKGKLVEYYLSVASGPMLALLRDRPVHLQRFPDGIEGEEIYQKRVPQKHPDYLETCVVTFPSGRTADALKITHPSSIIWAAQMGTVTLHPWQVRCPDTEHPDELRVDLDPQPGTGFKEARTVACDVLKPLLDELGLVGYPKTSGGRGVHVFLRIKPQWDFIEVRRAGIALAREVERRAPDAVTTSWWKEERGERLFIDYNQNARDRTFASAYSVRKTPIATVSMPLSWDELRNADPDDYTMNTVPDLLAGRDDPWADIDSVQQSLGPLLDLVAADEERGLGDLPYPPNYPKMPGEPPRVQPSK
Kind of data set: X-ray crystal structure, […] Å. Format: binding. The conditions noted are these: pre-catalytic ternary complex with 2-nt gapped DNA and two Mn2+; active site; pH 6.5.

In data set [2] the target is T2, Prim-PolC (crystallisation construct) (UniProt A0R5T1 4-336).
T2 sequence: T1 sequence (A0R5T1 4-336)
Nature of the data set: X-ray crystallography (2.0 A); Mn2+; PPi in one complex, 3'-dUTP in the other; Crystals: 0.05 M Na cacodylate pH 6.5, 2 M ammonium sulfate, 0.01 M MnCl2, 285 K, 300 uM protein:600 uM DNA; 2-AP assay: 0-1 uM protein, 1 uM DNA, 5 mM Ca2+, 250 uM ATP (buffer, pH and temperature not in material). The conditions noted are these: protein: recombinant; tags: N-terminal His; gapped duplex, 1-nt gap, blunt outer ends.

Data set [3] deals with T3, Prim-PolC N321G (UniProt A0R5T1 1-350, N321G).
T3 sequence: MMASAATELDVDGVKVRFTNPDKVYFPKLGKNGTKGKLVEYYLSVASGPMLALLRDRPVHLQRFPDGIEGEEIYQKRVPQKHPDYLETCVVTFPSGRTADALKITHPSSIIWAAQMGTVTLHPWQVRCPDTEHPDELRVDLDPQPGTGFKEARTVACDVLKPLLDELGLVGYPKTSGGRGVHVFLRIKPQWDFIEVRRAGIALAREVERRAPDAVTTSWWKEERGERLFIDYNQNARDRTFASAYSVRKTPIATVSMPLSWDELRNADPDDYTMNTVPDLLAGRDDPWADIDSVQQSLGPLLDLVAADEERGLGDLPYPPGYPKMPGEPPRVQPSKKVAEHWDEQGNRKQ
Nature of the data set: 2-aminopurine fluorescence (base flipping); 5 mM Ca2+, 250 uM ATP; similar to WT; Crystals: 0.05 M Na cacodylate pH 6.5, 2 M ammonium sulfate, 0.01 M MnCl2, 285 K, 300 uM protein:600 uM DNA; 2-AP assay: 0-1 uM protein, 1 uM DNA, 5 mM Ca2+, 250 uM ATP (buffer, pH and temperature not in material). Particulars: protein: recombinant, tags: N-terminal His, label: 2-AP, gapped duplex.

Data set [4] deals with T4, Prim-PolC N321A (UniProt A0R5T1 1-350, N321A).
T4 sequence: T3 sequence with G321A
The description is as above. The conditions noted are these: protein: recombinant; tags: N-terminal His; label: 2-AP; gapped duplex, 1-nt gap.

In data set [5] the target is T5, Prim-PolC WT (UniProt A0R5T1 1-350).
T5 sequence: T3 sequence with G321N
Kind of data set: 2-aminopurine fluorescence (base flipping); 5 mM Ca2+, 250 uM ATP; Crystals: 0.05 M Na cacodylate pH 6.5, 2 M ammonium sulfate, 0.01 M MnCl2, 285 K, 300 uM protein:600 uM DNA; 2-AP assay: 0-1 uM protein, 1 uM DNA, 5 mM Ca2+, 250 uM ATP (buffer, pH and temperature not in material). Particulars: protein: recombinant, tags: N-terminal His, label: 2-AP, gapped duplex.

The target of data set [6] is T2, Prim-PolC (crystallisation construct). Nature of the data set: X-ray crystallography (2.2 A); Mn2+, UpNHpp; Crystals: 0.05 M Na cacodylate pH 6.5, 2 M ammonium sulfate, 0.01 M MnCl2, 285 K, 300 uM protein:600 uM DNA; 2-AP assay: 0-1 uM protein, 1 uM DNA, 5 mM Ca2+, 250 uM ATP (buffer, pH and temperature not in material). Particulars: protein: recombinant; tags: N-terminal His; gapped duplex, 2-nt gap (AA), blunt outer ends.

As for `O=c1ccn([C@@H]2O[C@H](COP(=O)(O)NP(=O)(O)OP(=O)(O)O)[C@@H](O)[C@H]2O)c(=O)[nH]1` [UpNHpp], in data set [1], the “X-ray crystal structure, 2.21 Å” value was “a non-hydrolysable incoming UTP ribonucleotide (UpNHpp) and manganese ions were also included”.

B1: 1-nt gapped post-catalytic DNA (mixed)
DNA 1: CGCTCGCAACGCACG
DNA 2: CGTGCGU
?: GCGAGCG
modifications: 5'-phosphate on D strand; primer 3' terminus is 3'-deoxyuridine (ribo, incorporated in situ)
On to B1, for which, in data set [2], the binding result is listed as “binds”.

B2: 2-AP 1-nt gap substrate (dsDNA)
DNA 1: AGTCGCATAGTGTAGTCATGTCGATTCGCCATAG
DNA 2: CTATGAGCGAATCGAC
DNA 3: CGACTACACTATGCGACT
modifications: 2-aminopurine at position 15 of primer oKZ282 (written A); 5'-phosphate on downstream strand
Turning to B2, the binding result in data set [3] (1-nt gap), in data set [4] and in data set [5] (1-nt gap) was “binds” in each case.

B3: 2-AP 3-nt gap substrate (dsDNA)
DNA 1: B2 DNA 1
DNA 2: CTATGAGCGAATCGAC
DNA 3: ACTACACTATGCGACT
modifications: 2-aminopurine at position 15 of primer oKZ282 (written A); 5'-phosphate on downstream strand
For B3, the binding result in data set [3] (3-nt gap) was “binds”.

B4: 2-AP 2-nt gap substrate (dsDNA)
DNA 1: B2 DNA 1
DNA 2: CTATGAGCGAATCGAC
DNA 3: GACTACACTATGCGACT
modifications: 2-aminopurine at position 15 of primer oKZ282 (written A); 5'-phosphate on downstream strand
Turning to B4, in data set [5] (2-nt gap), the binding result is recorded as “binds”.

B5: 2-nt gapped DNA T/P/D (dsDNA)
DNA 1: CGCTCGCAACGCACG
DNA 2: CGTGCG
DNA 3: GCGAGCG
modifications: 5'-phosphate on D strand
On to B5, for which the binding result in data set [6] is given as “binds”.
